Measurements taken from patent publication US20170291954A1.

Target: mesothelin on K562.meso cells (erythroblast cell line stably expressing mesothelin)
Assay: cell-based or functional assay

CAR-T cell cytolysis at an Effector:target cell ratio of 10:1 (Cr51 release), K562meso: 95%
Substance: SS1 chimeric antigen receptor (mesothelin specific) on transduced T cells
